In patent US20150152192A1 (SAMSUNG ELECTRONICS, published 2015):

Key:
[1] = target: T1, human c-Met/Fc fusion protein (R&D Systems) (human, UniProt P08581 25-932); assay: SPR, Biacore T100, bispecific antibody captured by human Fab binder on CM5 chip, c-Met-Fc flowed
T1 construct: also called c-Met-Fc (#358-MT/CF, R&D Systems); human c-Met/Fc protein; not shown: Fc part
Method: For this, a human Fab binder (GE Healthcare) was fixed on the surface of CM5 chip (#BR-1005-30, GE) according to manufacturer's manual. […] Hereto, 10 mM Glycine-HCl (pH 1.5) solution was added, to regenerate the surface. To measure the affinity, the above obtained data were fitted using BIAevaluation software (GE Healthcare, Biacore T100 evaluation software).

[2] = target: T2, human Ang2 polypeptide (R&D systems; Accession #O15123; SEQ ID NO: 172) (human, UniProt O15123 19-496); assay: ELISA, human Ang2 coated, anti-human Fc-HRP; 50% binding concentration
T2 construct: Bought protein; also called hAng2; human Ang2 protein
T2 sequence: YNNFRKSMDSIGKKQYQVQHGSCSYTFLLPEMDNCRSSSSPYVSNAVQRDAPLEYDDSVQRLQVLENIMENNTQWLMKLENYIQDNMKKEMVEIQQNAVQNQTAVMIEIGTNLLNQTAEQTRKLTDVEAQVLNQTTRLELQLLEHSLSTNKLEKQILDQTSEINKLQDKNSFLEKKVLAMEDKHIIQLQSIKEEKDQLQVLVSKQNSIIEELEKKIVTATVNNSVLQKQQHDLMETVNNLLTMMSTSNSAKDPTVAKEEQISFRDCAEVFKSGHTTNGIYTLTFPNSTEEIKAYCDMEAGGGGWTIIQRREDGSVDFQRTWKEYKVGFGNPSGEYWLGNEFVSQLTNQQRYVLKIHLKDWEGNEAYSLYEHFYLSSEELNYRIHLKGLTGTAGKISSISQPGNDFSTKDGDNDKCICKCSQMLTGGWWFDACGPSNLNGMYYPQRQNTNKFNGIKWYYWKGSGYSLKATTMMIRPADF

T1 sequence (P08581 25-932 limits assumed): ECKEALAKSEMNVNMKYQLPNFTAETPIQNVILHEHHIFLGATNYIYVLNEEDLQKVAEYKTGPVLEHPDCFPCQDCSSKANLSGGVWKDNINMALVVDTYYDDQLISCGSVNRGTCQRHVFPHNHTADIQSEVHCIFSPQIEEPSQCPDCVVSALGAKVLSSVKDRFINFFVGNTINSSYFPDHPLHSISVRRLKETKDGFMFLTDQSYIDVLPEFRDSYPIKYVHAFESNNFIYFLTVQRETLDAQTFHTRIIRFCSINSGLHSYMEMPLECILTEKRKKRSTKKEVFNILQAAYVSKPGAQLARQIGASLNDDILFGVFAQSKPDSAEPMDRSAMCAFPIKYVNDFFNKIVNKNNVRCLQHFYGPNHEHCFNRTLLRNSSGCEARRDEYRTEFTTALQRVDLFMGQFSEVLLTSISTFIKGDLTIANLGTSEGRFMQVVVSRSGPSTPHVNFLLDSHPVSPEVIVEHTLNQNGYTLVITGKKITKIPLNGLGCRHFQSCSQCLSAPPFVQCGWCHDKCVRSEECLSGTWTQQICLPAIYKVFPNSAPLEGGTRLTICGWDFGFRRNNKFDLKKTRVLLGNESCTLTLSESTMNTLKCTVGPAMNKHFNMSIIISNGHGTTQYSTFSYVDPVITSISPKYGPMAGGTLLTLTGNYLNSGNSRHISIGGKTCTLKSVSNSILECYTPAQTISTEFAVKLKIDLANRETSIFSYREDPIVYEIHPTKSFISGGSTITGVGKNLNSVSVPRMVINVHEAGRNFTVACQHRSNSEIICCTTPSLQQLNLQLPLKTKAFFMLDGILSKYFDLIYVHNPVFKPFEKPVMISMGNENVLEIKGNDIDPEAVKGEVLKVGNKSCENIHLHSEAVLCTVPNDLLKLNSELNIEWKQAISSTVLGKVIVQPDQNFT

Kd [1]: 0.09 nM
koff [1]: 8.2e-05 s⁻¹
kon [1]: 850000 M⁻¹ s⁻¹
Kd [2]: 31 nM
B1: anti-c-Met/anti-Ang2 bispecific antibody (anti-Ang2 4-H10 scFv fused to the C-terminus of anti-c-Met antibody L3-1Y-IgG2) (bispecific antibody)
heavy: EVQLVESGGGLVQPGGSLRLSCAASGFTFTDYYMSWVRQAPGKGLEWLGFIRNKANGYTTEYSASVKGRFTISRDNSKNTLYLQMNSLRAEDTAVYYCARDNWFAYWGQGTLVTVSSASTKGPSVFPLAPCSRSTSESTAALGCLVKDYFPEPVTVSWNSGALTSGVHTFPAVLQSSGLYSLSSVVTVPSSNFGTQTYTCNVDHKPSNTKVDKTVERKCCVECPPCPAPPVAGPSVFLFPPKPKDTLMISRTPEVTCVVVDVSHEDPEVQFNWYVDGVEVHNAKTKPREEQFNSTFRVVSVLTVVHQDWLNGKEYKCKVSNKGLPAPIEKTISKTKGQPREPQVYTLPPSREEMTKNQVSLTCLVKGFYPSDIAVEWESNGQPENNYKTTPPMLDSDGSFFLYSKLTVDKSRWQQGNVFSCSVMHEALHNHYTQKSLSLSPGGGGGSGGGGSEVQLLESGGGLVQPGGSLRLSCAASGFTFSSYDMSWVRLAPGKGLEWVSLISPDSSSIYYADSVKGRFTISRDNSKNTLYLQMNSLRAEDTAVYYCAKDLISFWRGGFDYWGQGTLVTVSSGGGGSGGGGSGSGGSQSVLTQPPSASGTPGQRVTISCSGSSSNIGSNYVNWYQQLPGTAPKLLIYSDSHRPSGVPDRFSGSKSGTSASLAISGLRSEDEADYYCGAWDDSLSGYVFGGGTKLTVLGQAGQHHHHHHGAYPYDVPDYAS
light: DIQMTQSPSSLSASVGDRVTITCKSSQSLLASGNQNNYLAWYQQKPGKAPKMLIIWASTRVSGVPSRFSGSGSGTDFTLTISSLQPEDFATYYCQQSYSRPYTFGQGTKVEIKRTVAAPSVFIFPPSDEQLKSGTASVVCLLNNFYPREAKVQWKVDNALQSGNSQESVTEQDSKDSTYSLSSTLTLSKADYEKHKVYACEVTHQGLSSPVTKSFNRGEC
notes: also called BS ab; BS Ab
